# How the values were obtained:
# [1] = target: soluble human C3b (human) (UniProt P01024); assay: cell-based or functional assay
# human C4b (human) = human C4b (human) (UniProt P0C0L5); assay: cell-based or functional assay
# human C4b (human), sequence (P0C0L5 20-1744): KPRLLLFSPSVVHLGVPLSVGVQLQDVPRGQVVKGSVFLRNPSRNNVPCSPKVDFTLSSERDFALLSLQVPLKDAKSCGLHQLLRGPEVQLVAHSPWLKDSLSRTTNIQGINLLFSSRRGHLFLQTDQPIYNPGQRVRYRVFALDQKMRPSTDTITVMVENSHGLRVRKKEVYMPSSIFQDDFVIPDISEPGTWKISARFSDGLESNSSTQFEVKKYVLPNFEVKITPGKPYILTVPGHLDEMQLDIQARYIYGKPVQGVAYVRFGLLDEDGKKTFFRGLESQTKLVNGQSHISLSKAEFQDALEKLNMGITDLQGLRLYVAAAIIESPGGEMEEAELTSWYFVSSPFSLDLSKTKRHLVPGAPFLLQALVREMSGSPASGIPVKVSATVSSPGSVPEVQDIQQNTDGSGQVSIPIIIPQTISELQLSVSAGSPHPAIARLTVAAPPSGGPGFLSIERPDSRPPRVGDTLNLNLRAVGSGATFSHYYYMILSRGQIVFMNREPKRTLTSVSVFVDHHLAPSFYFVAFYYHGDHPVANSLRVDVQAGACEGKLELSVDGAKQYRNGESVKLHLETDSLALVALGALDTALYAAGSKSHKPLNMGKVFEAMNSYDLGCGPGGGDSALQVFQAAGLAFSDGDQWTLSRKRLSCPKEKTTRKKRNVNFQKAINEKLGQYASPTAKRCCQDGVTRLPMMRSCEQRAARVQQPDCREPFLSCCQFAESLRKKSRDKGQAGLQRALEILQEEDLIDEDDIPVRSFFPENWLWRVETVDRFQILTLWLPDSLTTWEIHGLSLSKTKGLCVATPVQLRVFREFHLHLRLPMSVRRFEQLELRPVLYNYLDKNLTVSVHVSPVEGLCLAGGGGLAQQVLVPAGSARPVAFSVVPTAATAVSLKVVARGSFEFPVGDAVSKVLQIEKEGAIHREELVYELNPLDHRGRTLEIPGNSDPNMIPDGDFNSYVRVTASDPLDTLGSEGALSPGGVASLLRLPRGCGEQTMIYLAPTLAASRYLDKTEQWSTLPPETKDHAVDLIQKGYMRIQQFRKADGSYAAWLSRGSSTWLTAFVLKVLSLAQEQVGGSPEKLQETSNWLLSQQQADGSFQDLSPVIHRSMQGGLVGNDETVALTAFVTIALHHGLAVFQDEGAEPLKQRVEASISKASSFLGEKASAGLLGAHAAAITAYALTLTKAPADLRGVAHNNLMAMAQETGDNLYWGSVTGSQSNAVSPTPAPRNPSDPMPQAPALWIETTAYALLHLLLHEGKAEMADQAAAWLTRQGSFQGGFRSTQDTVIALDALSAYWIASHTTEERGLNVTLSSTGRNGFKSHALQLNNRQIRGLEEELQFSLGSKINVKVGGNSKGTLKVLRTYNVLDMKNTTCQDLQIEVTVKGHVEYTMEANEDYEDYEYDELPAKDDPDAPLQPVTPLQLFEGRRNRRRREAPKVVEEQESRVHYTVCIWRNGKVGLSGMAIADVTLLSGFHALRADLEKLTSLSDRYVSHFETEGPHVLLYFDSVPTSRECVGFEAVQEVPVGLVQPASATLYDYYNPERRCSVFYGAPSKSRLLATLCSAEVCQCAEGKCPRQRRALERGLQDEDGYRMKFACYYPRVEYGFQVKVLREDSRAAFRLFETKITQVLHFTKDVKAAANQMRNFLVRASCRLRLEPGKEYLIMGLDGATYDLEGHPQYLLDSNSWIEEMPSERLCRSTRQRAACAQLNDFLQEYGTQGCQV
# soluble human C3b (human), sequence (P01024 23-1663 limits assumed): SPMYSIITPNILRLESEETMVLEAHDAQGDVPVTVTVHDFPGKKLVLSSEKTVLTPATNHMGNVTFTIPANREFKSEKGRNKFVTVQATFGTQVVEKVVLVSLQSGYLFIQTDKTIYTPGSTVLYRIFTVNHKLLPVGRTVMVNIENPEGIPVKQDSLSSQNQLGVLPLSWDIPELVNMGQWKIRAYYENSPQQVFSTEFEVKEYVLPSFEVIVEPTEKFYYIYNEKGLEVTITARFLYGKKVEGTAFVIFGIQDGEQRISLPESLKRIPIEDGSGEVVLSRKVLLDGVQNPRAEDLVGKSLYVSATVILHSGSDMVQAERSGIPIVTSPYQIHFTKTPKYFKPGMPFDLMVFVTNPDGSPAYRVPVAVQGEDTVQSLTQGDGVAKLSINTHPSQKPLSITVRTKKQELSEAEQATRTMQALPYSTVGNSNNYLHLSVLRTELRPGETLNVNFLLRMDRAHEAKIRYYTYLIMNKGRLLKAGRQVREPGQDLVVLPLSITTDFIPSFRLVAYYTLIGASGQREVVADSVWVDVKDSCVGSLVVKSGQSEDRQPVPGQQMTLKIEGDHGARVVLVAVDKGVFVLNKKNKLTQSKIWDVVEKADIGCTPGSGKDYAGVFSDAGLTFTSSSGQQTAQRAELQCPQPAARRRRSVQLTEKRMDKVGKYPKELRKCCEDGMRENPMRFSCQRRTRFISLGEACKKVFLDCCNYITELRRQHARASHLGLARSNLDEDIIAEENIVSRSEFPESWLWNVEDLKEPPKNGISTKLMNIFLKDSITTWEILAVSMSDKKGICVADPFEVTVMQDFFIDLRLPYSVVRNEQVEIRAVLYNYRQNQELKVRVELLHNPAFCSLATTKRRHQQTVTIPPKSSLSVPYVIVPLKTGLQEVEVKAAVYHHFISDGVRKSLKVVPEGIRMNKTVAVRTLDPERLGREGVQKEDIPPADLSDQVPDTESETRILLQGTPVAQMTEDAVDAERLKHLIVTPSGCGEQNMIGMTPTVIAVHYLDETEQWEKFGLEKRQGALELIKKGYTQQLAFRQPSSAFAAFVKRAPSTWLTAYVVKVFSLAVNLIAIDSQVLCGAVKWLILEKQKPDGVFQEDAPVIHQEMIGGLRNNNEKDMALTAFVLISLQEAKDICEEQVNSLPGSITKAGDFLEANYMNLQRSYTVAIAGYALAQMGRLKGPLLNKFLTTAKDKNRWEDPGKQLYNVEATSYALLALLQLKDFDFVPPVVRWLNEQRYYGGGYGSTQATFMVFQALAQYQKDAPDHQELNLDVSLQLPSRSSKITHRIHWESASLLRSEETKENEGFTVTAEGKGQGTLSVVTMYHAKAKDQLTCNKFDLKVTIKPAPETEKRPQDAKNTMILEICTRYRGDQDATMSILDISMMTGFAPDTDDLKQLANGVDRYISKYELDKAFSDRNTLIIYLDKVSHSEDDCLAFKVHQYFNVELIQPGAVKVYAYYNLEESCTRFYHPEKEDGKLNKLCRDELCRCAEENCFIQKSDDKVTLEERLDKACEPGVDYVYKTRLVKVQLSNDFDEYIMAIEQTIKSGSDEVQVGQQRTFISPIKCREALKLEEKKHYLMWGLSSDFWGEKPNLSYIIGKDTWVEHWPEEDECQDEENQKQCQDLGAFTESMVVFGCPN
# Const. No. 66: HSA-GGSSGG-hCFI-GGSSGG-hCR1; CCP8; CCP9; CCP10-(SEQ ID NO: 33)-hFH; CCP19; CCP20, sequence (P17927 other isoform, or with tags, fused parts or gaps limits assumed): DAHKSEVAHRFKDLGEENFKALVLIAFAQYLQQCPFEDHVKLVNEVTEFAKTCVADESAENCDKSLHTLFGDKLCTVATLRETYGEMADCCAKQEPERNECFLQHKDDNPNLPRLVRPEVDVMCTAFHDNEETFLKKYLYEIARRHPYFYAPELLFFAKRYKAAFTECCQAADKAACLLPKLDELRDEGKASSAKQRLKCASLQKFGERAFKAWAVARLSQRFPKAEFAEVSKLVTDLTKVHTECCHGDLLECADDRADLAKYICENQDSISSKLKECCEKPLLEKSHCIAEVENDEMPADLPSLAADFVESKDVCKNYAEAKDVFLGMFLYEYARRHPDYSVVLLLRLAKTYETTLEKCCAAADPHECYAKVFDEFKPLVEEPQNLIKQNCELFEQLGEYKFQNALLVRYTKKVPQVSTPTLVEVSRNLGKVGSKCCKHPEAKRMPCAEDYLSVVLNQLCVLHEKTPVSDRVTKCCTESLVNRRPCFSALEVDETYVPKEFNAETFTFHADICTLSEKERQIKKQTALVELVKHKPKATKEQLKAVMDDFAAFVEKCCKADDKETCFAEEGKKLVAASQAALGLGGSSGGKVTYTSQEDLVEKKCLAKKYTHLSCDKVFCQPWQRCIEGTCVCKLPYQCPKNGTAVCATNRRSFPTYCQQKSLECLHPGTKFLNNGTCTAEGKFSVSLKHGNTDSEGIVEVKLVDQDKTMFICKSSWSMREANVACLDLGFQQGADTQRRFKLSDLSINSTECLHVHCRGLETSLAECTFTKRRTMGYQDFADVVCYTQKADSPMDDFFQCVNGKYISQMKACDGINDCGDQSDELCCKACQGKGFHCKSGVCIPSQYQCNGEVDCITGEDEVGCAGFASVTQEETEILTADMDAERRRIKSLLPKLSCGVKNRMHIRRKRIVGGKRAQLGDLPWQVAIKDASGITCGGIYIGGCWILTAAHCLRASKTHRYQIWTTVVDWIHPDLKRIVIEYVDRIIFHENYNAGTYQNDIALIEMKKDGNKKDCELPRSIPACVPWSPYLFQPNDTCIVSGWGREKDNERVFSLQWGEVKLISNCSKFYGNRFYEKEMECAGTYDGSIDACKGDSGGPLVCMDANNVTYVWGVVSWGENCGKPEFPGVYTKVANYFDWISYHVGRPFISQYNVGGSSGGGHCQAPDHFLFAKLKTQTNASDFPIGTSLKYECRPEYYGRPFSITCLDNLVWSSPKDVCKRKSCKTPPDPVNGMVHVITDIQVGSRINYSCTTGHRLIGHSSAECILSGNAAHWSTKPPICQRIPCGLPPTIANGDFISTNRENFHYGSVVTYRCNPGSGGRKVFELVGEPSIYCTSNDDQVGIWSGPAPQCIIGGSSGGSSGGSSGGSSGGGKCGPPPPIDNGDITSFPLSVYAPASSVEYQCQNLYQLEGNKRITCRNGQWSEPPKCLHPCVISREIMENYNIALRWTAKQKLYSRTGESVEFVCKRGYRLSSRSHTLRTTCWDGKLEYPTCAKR
Substance,iC3b EC50 [1],further results
Const. No. 3: HSA-GGSSGG-hCFI; L307F (enzyme),18.9 nM,
Const. No. 5: HSA-GGSSGG-hCFI; L307W (enzyme),24.8 nM,
Const. No. 6: HSA-GGSSGG-hCFI; L307Y (enzyme),34.7 nM,
Const. No. 7: HSA-GGSSGG-hCFI; P433A (enzyme),15.8 nM,
Const. No. 14: HSA-GGSSGG-hCFI; S499A (enzyme),40.9 nM,
Const. No. 15: HSA-GGSSGG-hCFI; S499K (enzyme),35.1 nM,
Const. No. 16: HSA-GGSSGG-hCFI; S499V (enzyme),85.6 nM,
Const. No. 22: HSA-GGSSGG-hCFI; R62A (enzyme),102 nM,
Const. No. 23: HSA-GGSSGG-hCFI; R62E (enzyme),156 nM,
Const. No. 26: HSA-GGSSGG-hCFI; E401K (enzyme),6.39 nM,
Const. No. 29: HSA-GGSSGG-hCFI; E401F (enzyme),10.6 nM,
Const. No. 34: HSA-GGSSGG-hCFI; H554K (enzyme),8.7 nM,
Const. No. 35: HSA-GGSSGG-hCFI; R371E (enzyme),347 nM,
Const. No. 37: HSA-GGSSGG-hCFI; K51R; N52A; A55P; T59M; R61G; F64Y (enzyme),20.3 nM,
Const. No. 38: HSA-GGSSGG-hCFI; N52A (enzyme),39.8 nM,
Const. No. 41: HSA-GGSSGG-hCFI; L73F (enzyme),31.4 nM,
Const. No. 45: HSA-GGSSGG-hCFI; R484A (enzyme),61.1 nM,

Substance,iC3b EC50 [1],further results
Const. No. 47: HSA-GGSSGG-hCFI; R484E (enzyme),154 nM,
Const. No. 49: HSA-GGSSGG-hCFI; Δ(V565) > VY (enzyme),89.2 nM,
Const. No. 50: HSA-GGSSGG-hCFI; E416K (enzyme),12.8 nM,
Const. No. 51: HSA-GGSSGG-hCFI; E416R (enzyme),12.5 nM,
Const. No. 52: HSA-GGSSGG-hCFI; D395A (enzyme),22.5 nM,
Const. No. 53: HSA-GGSSGG-hCFI; D395G (enzyme),20.7 nM,
Const. No. 54: HSA-GGSSGG-hCFI; D395K (enzyme),7.38 nM,
Const. No. 55: HSA-GGSSGG-hCFI; D395R (enzyme),12.4 nM,
Const. No. 56: HSA-GGSSGG-hCFI; D395A; D425A (enzyme),9.67 nM,
Const. No. 57: HSA-GGSSGG-hCFI; D395A; E416A (enzyme),17.5 nM,
Const. No. 59: HSA-GGSSGG-hCFI; N402D (enzyme),24.9 nM,
Const. No. 60: HSA-GGSSGG-hCFI; K368D (enzyme),156 nM,
Const. No. 72: HSA-…-Cyno CFI (from UniProt A0A650AXN4 19-583) (enzyme),3.12 nM,
Const. No. 74: HSA-…-Bovine CFI (enzyme),5.79 nM,C4c EC50 (human C4b (human)): 47.1 nM
Const. No. 91: HSA-GGSSGG-hCFI; T377A; E457G; N531G (enzyme),6.69 nM,
"Const. No. 95: HSA linked with CFI (CFI-HSA), wild type (enzyme)",28.6 nM,

# Second part, led by results:
iC3b EC50 [1],Substance,further results
28.6 nM,Const. No. 2: HSA-GGSSGG-hCFI; F559H (enzyme),
21.4 nM,Const. No. 4: HSA-GGSSGG-hCFI; L307H (enzyme),
30.5 nM,Const. No. 21: HSA-GGSSGG-hCFI; K423R (enzyme),
6.26 nM,Const. No. 27: HSA-GGSSGG-hCFI; E401R (enzyme),
11.8 nM,Const. No. 28: HSA-GGSSGG-hCFI; E401A (enzyme),
16.4 nM,Const. No. 33: HSA-GGSSGG-hCFI; H554F (enzyme),
13.1 nM,Const. No. 36: HSA-GGSSGG-hCFI; A342R (enzyme),
31.4 nM,Const. No. 39: HSA-GGSSGG-hCFI; A55P (enzyme),
43.1 nM,Const. No. 40: HSA-GGSSGG-hCFI; T59E (enzyme),
168 nM,Const. No. 42: HSA-GGSSGG-hCFI; L73D (enzyme),
1000 nM,Const. No. 48: HSA-GGSSGG-hCFI; Δ(V565) > VG (enzyme),
8.15 nM,Const. No. 58: HSA-GGSSGG-hCFI; D395A; E416A; D425A (enzyme),
3.17 nM,Const. No. 66: HSA-GGSSGG-hCFI-GGSSGG-hCR1; CCP8; CCP9; CCP10-(SEQ ID NO: 33)-hFH; CCP19; CCP20 (from UniProt P17927 491-684; P08603 1107-1231) (enzyme),iC3b no cofactor EC50 [1]: 2.92 nM; iC3b with cofactor EC50 [1]: 3.2 nM
17.5 nM,Const. No. 70: HSA-…-Rat CFI (from UniProt Q9WUW3 19-604) (enzyme),
32.7 nM,Const. No. 71: HSA-…-Gorilla CFI (enzyme),C4c EC50 (human C4b (human)): 679 nM
54.6 nM,Const. No. 73: HSA-…-Chimp CFI (enzyme),C4c EC50 (human C4b (human)): 1610 nM
46.3 nM,Const. No. 92: HSA-GGSSGG-hCFI; N422A (enzyme),

# Reference: US20250011379A1
